Source: paper PMC9482650, “Quantitative fragmentomics allow affinity mapping of interactomes” (Nature Communications, 2022)

Assays:
Assay in all cases: holdup assay
Set-up in all cases: key: below the threshold = too weak to quantify, mostly under pKd 3.1 to 4
Settings in all cases: plain residues with an end cap or a label only (N-terminal biotin on a linker: ado-ado)
APBA3_1, O96018 = target: T1, APBA3_1, O96018
T1 sequence (O96018 389-490, limits assumed, looked up): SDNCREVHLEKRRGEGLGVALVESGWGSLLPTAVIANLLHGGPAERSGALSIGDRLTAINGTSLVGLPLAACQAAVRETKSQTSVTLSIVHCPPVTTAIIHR

CASK, O14936 = target: CASK, O14936
DFNB31_1, Q9P202 = target: T2, DFNB31_1, Q9P202
T2 sequence (Q9P202 135-233, limits assumed, looked up): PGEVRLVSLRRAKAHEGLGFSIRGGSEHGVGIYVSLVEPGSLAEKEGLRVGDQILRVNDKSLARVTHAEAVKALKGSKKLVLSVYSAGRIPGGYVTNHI

DFNB31_3, Q9P202 = target: T3, DFNB31_3, Q9P202
T3 sequence (Q9P202 811-907, limits assumed, looked up): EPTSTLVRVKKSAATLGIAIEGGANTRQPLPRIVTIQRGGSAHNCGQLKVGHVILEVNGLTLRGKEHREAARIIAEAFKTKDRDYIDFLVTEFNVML

DLG3_3, Q92796 = target: T4, DLG3_3, Q92796
T4 sequence (Q92796 374-475, limits assumed, looked up): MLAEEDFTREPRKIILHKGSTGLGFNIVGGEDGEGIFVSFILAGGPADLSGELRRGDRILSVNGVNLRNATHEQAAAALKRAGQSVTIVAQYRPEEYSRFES

DLG4_1, P78352 = target: DLG4_1, P78352
DLG4_2, P78352 = target: DLG4_2, P78352
FRMPD3, Q5JV73 = target: FRMPD3, Q5JV73
GRIP2_3, Q9C0E4 = target: GRIP2_3, Q9C0E4
GRIP2_4, Q9C0E4 = target: GRIP2_4, Q9C0E4
GRIP2_5, Q9C0E4 = target: GRIP2_5, Q9C0E4
GRIP2_6, Q9C0E4 = target: GRIP2_6, Q9C0E4
IL16_3, Q14005 = target: IL16_3, Q14005
Inadl_1, Q8NI35 = target: Inadl_1, Q8NI35
Inadl_8, Q8NI35 = target: Inadl_8, Q8NI35
LDB3, O75112 = target: LDB3, O75112
LIMK2, P53671 = target: LIMK2, P53671
LNX2_2, Q8N448 = target: T5, LNX2_2, Q8N448
T5 sequence (Q8N448 334-432, limits assumed, looked up): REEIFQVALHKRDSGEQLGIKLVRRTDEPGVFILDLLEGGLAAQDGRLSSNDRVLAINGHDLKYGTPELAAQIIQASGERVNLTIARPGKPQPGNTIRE

MAGI2_4, Q86UL8 = target: MAGI2_4, Q86UL8
MAGI2_6, Q86UL8 = target: MAGI2_6, Q86UL8
MAGI3_2, Q5TCQ9 = target: MAGI3_2, Q5TCQ9
MPDZ_12, O75970 = target: T6, MPDZ_12, O75970
T6 sequence (O75970 1857-1958, limits assumed, looked up): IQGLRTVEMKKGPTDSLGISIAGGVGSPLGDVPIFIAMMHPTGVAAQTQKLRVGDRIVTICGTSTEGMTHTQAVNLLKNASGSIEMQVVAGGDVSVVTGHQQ

MPP2, Q14168 = target: T7, MPP2, Q14168
T7 sequence (Q14168 180-250, limits assumed, looked up): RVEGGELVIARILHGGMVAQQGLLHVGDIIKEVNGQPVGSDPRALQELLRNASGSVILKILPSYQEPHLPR

MPP6, Q9NZW5 = target: T8, MPP6, Q9NZW5
T8 sequence (Q9NZW5 125-219, limits assumed, looked up): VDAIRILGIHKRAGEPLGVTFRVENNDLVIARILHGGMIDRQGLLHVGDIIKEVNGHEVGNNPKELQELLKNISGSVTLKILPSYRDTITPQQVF

PDZD7_3, Q9H5P4 = target: T9, PDZD7_3, Q9H5P4
T9 sequence (Q9H5P4 857-944, limits assumed, looked up): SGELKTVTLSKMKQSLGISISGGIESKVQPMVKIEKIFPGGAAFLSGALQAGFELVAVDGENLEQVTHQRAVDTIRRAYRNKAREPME

PTPN3, P26045 = target: PTPN3, P26045
SCRIB_3, Q14160 = target: SCRIB_3, Q14160
SHANK1, Q9Y566 = target: T10, SHANK1, Q9Y566
T10 sequence (Q9Y566 658-767, limits assumed, looked up): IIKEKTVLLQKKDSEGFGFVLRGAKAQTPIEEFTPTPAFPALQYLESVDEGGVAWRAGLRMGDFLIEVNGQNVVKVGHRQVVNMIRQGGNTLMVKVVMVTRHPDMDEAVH

TJP1_3, Q07157 = target: TJP1_3, Q07157
Chain of TJP1_3, Q07157 (Q07157 416-512): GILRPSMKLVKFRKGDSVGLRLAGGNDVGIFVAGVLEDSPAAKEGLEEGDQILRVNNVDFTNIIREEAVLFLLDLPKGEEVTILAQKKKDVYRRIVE

Chain of DLG4_2, P78352 (P78352 155-259): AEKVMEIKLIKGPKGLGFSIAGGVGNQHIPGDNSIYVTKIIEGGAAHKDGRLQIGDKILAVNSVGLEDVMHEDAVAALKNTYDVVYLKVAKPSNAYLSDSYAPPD
Chain of GRIP2_4, Q9C0E4 (Q9C0E4 446-548): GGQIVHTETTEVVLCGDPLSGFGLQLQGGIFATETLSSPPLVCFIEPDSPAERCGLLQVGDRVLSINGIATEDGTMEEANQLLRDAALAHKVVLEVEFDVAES
Chain of DLG4_1, P78352 (P78352 62-152): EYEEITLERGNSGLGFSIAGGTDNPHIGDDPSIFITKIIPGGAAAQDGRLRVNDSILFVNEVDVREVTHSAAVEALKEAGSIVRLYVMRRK
Chain of FRMPD3, Q5JV73 (Q5JV73 12-100): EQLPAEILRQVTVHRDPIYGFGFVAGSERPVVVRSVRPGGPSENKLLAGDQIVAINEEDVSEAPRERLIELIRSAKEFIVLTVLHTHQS
Chain of GRIP2_5, Q9C0E4 (Q9C0E4 544-642): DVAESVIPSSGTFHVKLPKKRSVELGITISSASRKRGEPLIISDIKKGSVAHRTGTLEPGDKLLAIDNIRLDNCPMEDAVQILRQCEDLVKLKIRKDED
Chain of MAGI2_6, Q86UL8 (Q86UL8 1141-1229): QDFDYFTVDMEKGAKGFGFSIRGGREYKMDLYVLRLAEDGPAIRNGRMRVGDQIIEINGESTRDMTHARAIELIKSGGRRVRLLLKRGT
Chain of Inadl_8, Q8NI35 (Q8NI35 1425-1530): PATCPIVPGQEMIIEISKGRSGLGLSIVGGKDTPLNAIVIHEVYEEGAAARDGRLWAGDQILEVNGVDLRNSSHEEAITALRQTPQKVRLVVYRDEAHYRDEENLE
Chain of LDB3, O75112 (O75112 1-94): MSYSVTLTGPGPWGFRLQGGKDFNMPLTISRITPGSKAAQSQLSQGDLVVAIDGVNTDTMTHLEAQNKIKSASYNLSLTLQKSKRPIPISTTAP
Chain of LIMK2, P53671 (P53671 143-248): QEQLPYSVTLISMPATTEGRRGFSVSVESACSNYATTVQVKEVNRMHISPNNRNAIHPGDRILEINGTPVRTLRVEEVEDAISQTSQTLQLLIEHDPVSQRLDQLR
Chain of Inadl_1, Q8NI35 (Q8NI35 113-229): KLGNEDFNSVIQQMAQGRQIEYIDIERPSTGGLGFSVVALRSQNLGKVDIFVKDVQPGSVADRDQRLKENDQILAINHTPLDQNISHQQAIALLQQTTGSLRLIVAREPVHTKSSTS
Chain of CASK, O14936 (O14936 487-570): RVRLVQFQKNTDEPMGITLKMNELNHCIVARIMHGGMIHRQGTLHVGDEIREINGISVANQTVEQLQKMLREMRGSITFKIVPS
Chain of MAGI2_4, Q86UL8 (Q86UL8 772-865): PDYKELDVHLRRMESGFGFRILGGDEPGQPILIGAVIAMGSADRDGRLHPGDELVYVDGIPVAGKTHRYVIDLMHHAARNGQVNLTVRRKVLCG
Chain of MAGI3_2, Q5TCQ9 (Q5TCQ9 398-503): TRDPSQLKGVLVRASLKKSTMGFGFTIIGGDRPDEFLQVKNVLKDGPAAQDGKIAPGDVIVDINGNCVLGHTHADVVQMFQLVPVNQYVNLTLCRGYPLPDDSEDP
Chain of PTPN3, P26045 (P26045 505-587): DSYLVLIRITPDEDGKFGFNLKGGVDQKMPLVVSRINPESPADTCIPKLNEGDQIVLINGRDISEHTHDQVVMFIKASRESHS
Chain of SCRIB_3, Q14160 (Q14160 999-1103): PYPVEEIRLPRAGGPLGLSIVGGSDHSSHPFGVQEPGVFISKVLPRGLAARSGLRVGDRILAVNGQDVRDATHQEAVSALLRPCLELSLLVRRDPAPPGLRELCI
Chain of GRIP2_3, Q9C0E4 (Q9C0E4 238-339): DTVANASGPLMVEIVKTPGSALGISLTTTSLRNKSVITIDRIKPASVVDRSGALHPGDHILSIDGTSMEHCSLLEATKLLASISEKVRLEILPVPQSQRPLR
Chain of GRIP2_6, Q9C0E4 (Q9C0E4 648-740): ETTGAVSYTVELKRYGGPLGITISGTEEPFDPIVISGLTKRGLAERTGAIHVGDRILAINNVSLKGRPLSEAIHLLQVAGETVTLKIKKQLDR
Chain of IL16_3, Q14005 (Q14005 1107-1207): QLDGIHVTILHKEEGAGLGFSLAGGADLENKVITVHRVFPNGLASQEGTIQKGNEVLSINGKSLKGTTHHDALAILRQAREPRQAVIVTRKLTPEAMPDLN

B1: SLC5A12, Q1EHB4 (peptide)
chain: NNMAFETTHF
pKd (APBA3_1, O96018): below the threshold | pKd (CASK, O14936): below the threshold | pKd (DFNB31_1, Q9P202): 4.01 | pKd (DFNB31_3, Q9P202): 3.78 | pKd (DLG3_3, Q92796): below the threshold | pKd (DLG4_1, P78352): below the threshold | pKd (DLG4_2, P78352): below the threshold | pKd (FRMPD3, Q5JV73): 3.5 | pKd (GRIP2_3, Q9C0E4): below the threshold | pKd (GRIP2_4, Q9C0E4): below the threshold | pKd (GRIP2_5, Q9C0E4): below the threshold | pKd (GRIP2_6, Q9C0E4): below the threshold | pKd (IL16_3, Q14005): below the threshold | pKd (Inadl_1, Q8NI35): below the threshold | pKd (Inadl_8, Q8NI35): below the threshold | pKd (LDB3, O75112): below the threshold | pKd (LIMK2, P53671): below the threshold | pKd (LNX2_2, Q8N448): below the threshold | pKd (MAGI2_4, Q86UL8): below the threshold | pKd (MAGI2_6, Q86UL8): 4 | pKd (MAGI3_2, Q5TCQ9): below the threshold | pKd (MPDZ_12, O75970): below the threshold | pKd (MPP2, Q14168): below the threshold | pKd (MPP6, Q9NZW5): below the threshold | pKd (PDZD7_3, Q9H5P4): below the threshold | pKd (PTPN3, P26045): below the threshold | pKd (SCRIB_3, Q14160): 4.02 | pKd (SHANK1, Q9Y566): 5.81 | pKd (TJP1_3, Q07157): below the threshold

B2: CXCR1, P25024 (peptide)
chain: SSSVNVSSNL
pKd (APBA3_1, O96018): below the threshold | pKd (CASK, O14936): below the threshold | pKd (DFNB31_1, Q9P202): 3.56 | pKd (DFNB31_3, Q9P202): 4.18 | pKd (DLG3_3, Q92796): below the threshold | pKd (DLG4_1, P78352): below the threshold | pKd (DLG4_2, P78352): below the threshold | pKd (FRMPD3, Q5JV73): below the threshold | pKd (GRIP2_3, Q9C0E4): below the threshold | pKd (GRIP2_4, Q9C0E4): below the threshold | pKd (GRIP2_5, Q9C0E4): below the threshold | pKd (GRIP2_6, Q9C0E4): below the threshold | pKd (IL16_3, Q14005): below the threshold | pKd (Inadl_1, Q8NI35): below the threshold | pKd (Inadl_8, Q8NI35): below the threshold | pKd (LDB3, O75112): below the threshold | pKd (LIMK2, P53671): below the threshold | pKd (LNX2_2, Q8N448): below the threshold | pKd (MAGI2_4, Q86UL8): below the threshold | pKd (MAGI2_6, Q86UL8): below the threshold | pKd (MAGI3_2, Q5TCQ9): below the threshold | pKd (MPDZ_12, O75970): below the threshold | pKd (MPP2, Q14168): below the threshold | pKd (MPP6, Q9NZW5): below the threshold | pKd (PDZD7_3, Q9H5P4): below the threshold | pKd (PTPN3, P26045): 4.48 | pKd (SCRIB_3, Q14160): 4.02 | pKd (SHANK1, Q9Y566): 3.94 | pKd (TJP1_3, Q07157): below the threshold

B3: PTH1R, Q03431 (peptide)
chain: LLQEEWETVM
pKd (APBA3_1, O96018): below the threshold | pKd (CASK, O14936): below the threshold | pKd (DFNB31_1, Q9P202): 3.84 | pKd (DFNB31_3, Q9P202): 4.17 | pKd (DLG3_3, Q92796): below the threshold | pKd (DLG4_1, P78352): below the threshold | pKd (DLG4_2, P78352): below the threshold | pKd (FRMPD3, Q5JV73): below the threshold | pKd (GRIP2_3, Q9C0E4): below the threshold | pKd (GRIP2_4, Q9C0E4): below the threshold | pKd (GRIP2_5, Q9C0E4): 3.51 | pKd (GRIP2_6, Q9C0E4): below the threshold | pKd (IL16_3, Q14005): below the threshold | pKd (Inadl_1, Q8NI35): below the threshold | pKd (Inadl_8, Q8NI35): below the threshold | pKd (LDB3, O75112): below the threshold | pKd (LIMK2, P53671): below the threshold | pKd (LNX2_2, Q8N448): below the threshold | pKd (MAGI2_4, Q86UL8): below the threshold | pKd (MAGI2_6, Q86UL8): 3.75 | pKd (MAGI3_2, Q5TCQ9): below the threshold | pKd (MPDZ_12, O75970): below the threshold | pKd (MPP2, Q14168): below the threshold | pKd (MPP6, Q9NZW5): below the threshold | pKd (PDZD7_3, Q9H5P4): 4.45 | pKd (PTPN3, P26045): 4.92 | pKd (SCRIB_3, Q14160): 4.64 | pKd (SHANK1, Q9Y566): 4.85 | pKd (TJP1_3, Q07157): below the threshold
